Drawing on doi:10.1101/2022.06.01.494241, this text covers sensor fluorescence response (ΔF/Fo) in HEK293 cells, 500 nM to 100 μM DAMGO for one substance.

The target in the assay is mLight (rat). Particulars: scale: % ΔF/Fo.

For “[D-Ala^2, N-MePhe^4, Gly-ol]-enkephalin (peptide)”, the sensor fluorescence response (ΔF/Fo) in HEK293 cells, 500 nM to 100 μM DAMGO turned out to be 9.06.
